Values of other authors as cited in publication PMC3134397.

Tests used:
RAE-1β (Mus musculus) = RAE-1β (Mus musculus) (UniProt O08603); test: AUC
RAE-1γ (Mus musculus) = RAE-1γ (Mus musculus) (UniProt O08604); test: AUC
RAE-1δ (Mus musculus) = RAE-1δ (Mus musculus) (UniProt Q9JI58); test: AUC
[1] = target: UL18 (Human betaherpesvirus 5) (UniProt P08560); test: SPR

UniProt Q9JI58, sequence (Q9JI58 29-225, stated change not applied): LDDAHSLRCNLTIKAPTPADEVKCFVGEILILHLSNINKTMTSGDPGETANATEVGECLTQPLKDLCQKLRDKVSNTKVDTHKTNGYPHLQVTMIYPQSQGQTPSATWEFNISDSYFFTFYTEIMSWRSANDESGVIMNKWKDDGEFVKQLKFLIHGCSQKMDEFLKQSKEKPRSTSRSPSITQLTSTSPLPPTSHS
UniProt O08603, sequence (O08603 29-229): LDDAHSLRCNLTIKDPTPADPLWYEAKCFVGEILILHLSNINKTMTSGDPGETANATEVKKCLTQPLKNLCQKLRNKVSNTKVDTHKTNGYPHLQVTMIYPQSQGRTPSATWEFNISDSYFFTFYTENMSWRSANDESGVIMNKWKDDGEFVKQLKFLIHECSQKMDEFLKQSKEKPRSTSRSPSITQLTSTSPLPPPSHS
UniProt O08604, sequence (O08604 29-227): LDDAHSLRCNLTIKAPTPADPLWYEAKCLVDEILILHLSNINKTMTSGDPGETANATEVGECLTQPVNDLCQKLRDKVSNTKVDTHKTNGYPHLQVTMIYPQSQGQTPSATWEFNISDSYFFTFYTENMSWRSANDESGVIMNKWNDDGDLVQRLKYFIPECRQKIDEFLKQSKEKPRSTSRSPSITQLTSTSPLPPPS

Row | Substance | Kd (RAE-1β (Mus musculus)) [nM] | Kd (RAE-1γ (Mus musculus)) [nM] | Kd (RAE-1δ (Mus musculus)) [nM] | Kd [1] [nM]
1 | m152 (from UniProt Q83156) | 3000 | 1000 | 30000 | 
2 | LIR1 (from UniProt Q8NHL6) |  |  |  | 10
